Patent US5747322
Substitutions are numbered along the chain they refer to. In names and notes the source's numbering stands. Blank lines part the entries; values can stand above or below the binder they belong to.

Tests used:
[1] = target: T1, Suc-AAP-Ala-pNA
T1 sequence (peptide, N-terminal Suc; C-terminal pNA): AAPA

[2] = target: Suc-AAP-Arg-pNA
[3] = target: Suc-AAP-Gln-pNA
[4] = target: T2, Suc-AAP-Leu-pNA
T2 sequence (peptide, N-terminal Suc; C-terminal pNA): AAPL

[5] = target: Suc-AAP-Lys-pNA
[6] = target: Suc-AAP-Met-pNA
[7] = target: Suc-AAP-Orn-pNA
[8] = target: Suc-AAP-Phe-pNA
[9] = target: T3, Z-GPR-pNA
T3 sequence (peptide, N-terminal Z; C-terminal pNA): GPR

[10] = target: bovine calf skin collagen (type I collagen) (bovine) (UniProt P02453)

kcat /Km [1]: 867 M⁻¹ s⁻¹
kcat /Km [2]: 917000 M⁻¹ s⁻¹
kcat /Km [3]: 5500 M⁻¹ s⁻¹
kcat /Km [4]: 51700 M⁻¹ s⁻¹
kcat /Km [5]: 23300 M⁻¹ s⁻¹
kcat /Km [6]: 23300 M⁻¹ s⁻¹
kcat /Km [7]: 4800 M⁻¹ s⁻¹
kcat /Km [8]: 23300 M⁻¹ s⁻¹
kcat /Km [9]: 14500 M⁻¹ s⁻¹
B1: crab collagenase D226G/G189D (enzyme)
chain: IVGGVEAVPNSWPHQAALFIDDMYFCGGSLISPEWILTAAHCMDGAGFVDVVLGAHNIREDEATQVTIQSTDFTVHENYNSFVISNDIAVIRLPSPVTLTAAIATVGLPSTDVGVGTVVTPTGWGLPSDSALGISDVLRQVDVPIMSNADCDAVYGIVTDGNICIDSTGGKDTCNGDSGGPLNYNGLTYGITSFGAAAGCEAGYPGAFTRVTYFLDWIQTQTGITP

kcat /Km [1]: 317 M⁻¹ s⁻¹
kcat /Km [2]: 48300 M⁻¹ s⁻¹
kcat /Km [3]: 5500 M⁻¹ s⁻¹
kcat /Km [4]: 80000 M⁻¹ s⁻¹
kcat /Km [5]: 400 M⁻¹ s⁻¹
kcat /Km [6]: 48300 M⁻¹ s⁻¹
kcat /Km [7]: 383 M⁻¹ s⁻¹
kcat /Km [8]: 115000 M⁻¹ s⁻¹
kcat /Km [9]: 367 M⁻¹ s⁻¹
B2: crab collagenase D226G (enzyme)
chain: B1 chain with D172G

kcat /Km [1]: 2170 M⁻¹ s⁻¹
kcat /Km [2]: 1.33e+06 M⁻¹ s⁻¹
kcat /Km [3]: 18300 M⁻¹ s⁻¹
kcat /Km [4]: 152000 M⁻¹ s⁻¹
kcat /Km [5]: 60000 M⁻¹ s⁻¹
kcat /Km [6]: 70000 M⁻¹ s⁻¹
kcat /Km [7]: 7830 M⁻¹ s⁻¹
kcat /Km [8]: 158000 M⁻¹ s⁻¹
kcat /Km [9]: 7170 M⁻¹ s⁻¹
collagen cleavage (3/4, 1/4 fragmentation pattern) [10]: > 50%
B3: recombinant crab serine collagenase 1 (mature, wild type) (enzyme)
chain: B1 chain with D172G, G206D
